The text below walks through data of the DeepSol protein solubility set.

This series is described as follows: soluble on expression in E. coli; label from the status in PepcDB or PDB records.
“MSQYVVCALYKFVELNNYQELREPLLALMEKHHIRGTLLLAGEGINGTVASDRAGIDTLLEWLNTEPRLTGTVYKESYSETQPFNRTKVKLKKEIVTLGVEGIDPRHVVGTYVKPQDWNDLIADPEVFVVDTRNDYEIEIGTFKGAVNPNTETFREFPDYVKENMDPAKHKKVAMFCTGGIRCEKSTAYMKEQGFEEVYHLEGGILKYLEEVPQEESMWEGDCYVFDGRVAVNHQLEKADYDLCNACRLPITDEDKQSELFEQGVSCPKCHGKHSEEQVERFREREKQVSLANQRGEQHVGGESAKQRAQRREAKLAKKAAQRKQALEHHHHHH”: the “soluble on expression in E. coli” value was “soluble”.
As to “SMYMSNPTVRIAFVGKYLQDAGDTYFSVLQCFEHCQIALQVRLDILYVDSEELEGPNADEARKALLGCDGIFVPGGFGNRGVDGKCAAAQVARMNNIPYFGVCLGMQVAVIELSRNVVGWSDANSEEFNKESTHQVVRIMDCDRNKMGANMHLGACDVYIVEKSSIMAKIYSKSNIVVERHRHRYEVNTAYFEDLRKAGLCISAVTDPTFSSRCRVEAVENPSLRFFLAVQFHPEFISTPMDPAPTYLSFMAAAAKKDYVWPQKCSQRRLKQA”, the “soluble on expression in E. coli” value is reported as “soluble”.
For “MFISCIILINYSYIFGKNIRYLYEFKVIWKSNNSLILFFIEFDRNFMTIKFKLFKCRRLNILIELINIENYFRNGNILCFIFNIPSIPRNLLINVFLTSSNKVNISIQGLKLEHHHHHH”, the “soluble on expression in E. coli” value is “not soluble”.
Regarding “MEASKYVGQGFQPPAEKDAVEFAKKHKDKIAKRGEQFFMDNFGLKVKATNVVGSGDGVEVFVHCDDHDIVFNASIPFDKSIIDSDSSLRSEDKGDDMSTLVGTVLSGFEYRAQKEKYDNLYKFFKENEKKYQYTGFTKEAINKTQNSGYENEYFYIVANIPTLQEYRKYYEPLIKKNNLNFKKGMKQARKGVGYKAAIEVHTTLFSRSSNFSKDKKLDDVIDLSESTKKLHLNFENTKIFLQLAKSTISTNRVNYSDNESIRIEVELEHHHHHH”, the “soluble on expression in E. coli” value is “not soluble”.
Turning to “MGVNGAAGRSPGPKAVKPASVAIAVDYAMLTHEQAAVCAMRHERIDINPEVMGGKPVVRGTRIPVEMILRKLGAGLSTAEIIADHPRLTADDILAVQTFAADYLADQDVIFG”, the “soluble on expression in E. coli” value is “not soluble”.
With “MTLDDSSLQKFGFIKRETLGSINIDPLQTGGLLTGAAKQALVEWGDGYSVCDFCGGVLDLVKKPPIHDFVHKALPEFLGCDEARVTNGARESKFAVMHSMGKPGDWVVLDGLAHYSSYVAAERAGLNIEVVPHAGSPEYHLDPGRYGKAIEEVTKENGKPPVLALVTYPDGSYGNIPDAAKIASVCHEYDVPLLLNGAYSVGRMPVSAKEIGADFIVGSGHKSMAASGPVGVLGVSEEYAPVVFRKSVHNKVKEIELLGCTARGATVMTLMASFPEVVKRTRNWDQEVENARWFSSRLEGMGFIQRGQKPHSHDLMFFEAPGFYEISQKVKNGRYFLYRELKERNIHGIKSGLTKYFKLSTFGLGKEKLGTVADAFEDILKKYENI” the entry was “not soluble”; with “MKQFGLAAFDELKDGKYNDVNKTILEKQSVELRDQLMVFQERLVEFAKKHNSELQASPEFRSKFMHMCSSIGIDPLSLFDRDKHLFTVNDFYYEVCLKVIEICRQTKDMNGGVISFQELEKVHFRKLNVGLDDLEKSIDMLKSLECFEIFQIRGKKFLRSVPNELTSDQTKILEICSILGYSSISLLKANLGWEAVRSKSALDEMVANGLLWIDYQGGAEALYWDPSWITRQL”, “soluble”.
Next, “MREHTLKNGMKLLMVERHTSPTVAAWIRFRVGSVDERSDERGIAHLLEHMLFKGTKTLGTKDYAAEKPLLDKIEETAQALIAEKAKGARADAGRVDELGKKLNALEADAGKYVIKEEFAEIYARNGGAGYNAMTGKDGTTYLINMPSNKLELWAAIEGDRMQNAVLREFYTERDVVMEERRRSYDTEPGSKLWETFVAVTYNAHPYGQPIIGWMSDLENLTRTKAEEFFRRYYKPNNAIVALVGDIDPDKTIALVEKYFGDIPPGTLVGPVAVVEPAQQGERRVEILADAEPELLVGFHKPTLPNPDDYVFDVIDMILADGRTSRLYKKLVVEKQLAAEVSTFSAPGSRYPNLFVLAATPRAPHTAKEVEDAIYEELERLKKEPMTERELAQILNRLEYEESRQMISNGGLARNLTEYEAVTGSWRYLIEHRKEVAKVTPDDVIRVARKYFVRENRTVGVITKKEDVK”: “not soluble”; “ARLKHLEDEPGHEDEGKRPLFHFSAVERIARIGVPSMIQQSIVSISMLMMQGLVNSYGSVFIAGYTAATKIDSLAMMPNMNFSNAMSSYTAQNIGAGKIERVKDGYKANM”: “not soluble”.
“MAHHHHHHMGTLEAQTQGPGSMDNKKPKIITIASIKGGVGKSTSAIILATLLSKNNKVLLIDMDTQASITSYFYEKIEKLGINFTKFNIYEILKENVDIDSTIINVDNNLDLIPSYLTLHNFSEDKIEHKDFLLKTSLGTLYYKYDYIVIDTNPSLDVTLKNALLCSDYVIIPMTAEKWAVESLDLFNFFVRKLNLFLPIFLIITRFKKNRTHKTLFEILKTKDRFLGTISEREDLNRRIAENNNFDLNKDYIKEYENILEIFLKKI”: the “soluble on expression in E. coli” value is “soluble”.
For “MSCVHYKFSSKLNYDTVTFDGLHISLCDLKKQIMGREKLKAADSDLQITNAQTKEEYTDDNALIPKNSSVIVRRIPIGGVKSTSKTYVISRTEPVMGTTKAVCKNTITLFLHNCFYLYNVSVT”, the “soluble on expression in E. coli” value is “not soluble”.
Next, “MGSDKIHHHHHHMKLPIKKAVEALLKLQTTGDSATLIGVGPMSRNLLQASFELAKEDDYPLMFIASRNQVDADELGGGYVNGWNQFSFIDAIKEVAKEVDFDGLYYVCRDHGGPWQRDQERNDHLPTEKAMELGKKSYIADIEAGFDLLMIDPTKDPFEVGKVIPLETVLERTVDLIAFCEEERKKRGLPEIGYEVGTEETNGGLTSTETYEKFITQLKVELEKRDLPLPTFIVGQTGTLTRKTEQVGHFNFKNAYDLAQMAKKYGVGLKEHNGDYLDDVTLLEHIPSEITATNVAPQYGTEETRAYLKLVELEQKLVENGLIKTPSNAREVLLIQSIKSERWRKWMLDGQKDITINEIMQDDDLSLEILDIAGHYTFNDAMVKKEINTLYANLAANNIDGKRFVIDHIKRPIRNYSECYNLKGATTRIKQLAK”: “not soluble”; “MAPGTKKKSDMAKFTFYKDRLMTFKNFEYDRDPDAKCTSQAVAQAGFYCTGPQSGKCAFCNKELDFDPEDDPWYEHTKRDEPCEFVRIGKLDDSELTINDTVRLSQTAMIMTKLFEHEMMINNLSNHSSSDALFDQLKKVPNTASTTKSNSRRGK”: “not soluble”; “SGRPFVEMYSEIPEIIHMTEGRELVIPCRVTSPNITVTLKKFPLDTLIPDGKRIIWDSRKGFIISNATYKEIGLLTCEATVNGHLYKTNYLTHRQTNTIIDVQISTPRPVKLLRGHTLVLNCTATTPLNTRVQMTWSYPDEKNKRASVRRRIDQSNSHANIFYSVLTIDKMQNKDKGLYTCRVRSGPSFKSVNTSVHIYDKAFITVKHR”: “soluble”.
In the case of “MSCINLPTVLPGSPSKTRGQIQVILGPMFSGKSTELMRRVRRFQIAQYKCLVIKYAKDTRYSSSFCTHDRNTMEALPACLLRDVAQEALGVAVIGIDEGQFFPDIVEFCEAMANAGKTVIVAALDGTFQRKPFGAILNLVPLAESVVKLTAVCMECFREAAYTKRLGTEKEVEVIGGADKYHSVCRLCYFKKASGQPAGPDNKENCPVPGKPGEAVAARKLFAPQQILQCSPAN”, the “soluble on expression in E. coli” value is “not soluble”.
For the sequence “MTENAEKFLWGVATSAYQIEGATQEDGRGPSIWDAFAQRPGAIRDGSTGEPACDHYRRYEEDIALMQSLGVRAYRFSVAWPRILPEGRGRINPKGLAFYDRLVDRLLASGITPFLTLYHWDLPLALEERGGWRSRETAFAFAEYAEAVARALADRVPFFATLNEPWCSAFLGHWTGEHAPGLRNLEAALRAAHHLLLGHGLAVEALRAAGARRVGIVLNFAPAYGEDPEAVDVADRYHNRFFLDPILGKGYPESPFRDPPPVPILSRDLELVARPLDFLGVNYYAPVRVAPGTGTLPVRYLPPEGPATAMGWEVYPEGLYHLLKRLGREVPWPLYVTENGAAYPDLWTGEAVVEDPERVAYLEAHVEAALRAREEGVDLRGYFVWSLMDNFEWAFGYTRRFGLYYVDFPSQRRIPKRSALWYRERIARAQT”, the “soluble on expression in E. coli” value is “soluble”.
